For 1 substance, EC50 results are on record in CN112646041A.

In this test the target is 人CD64 ECD-his抗原(SINO BIOLOGICAL，货号:10256-H08H) (human) (UniProt P12314). Kind of test: ELISA, antibody coated at 67 to 0.0043 nM, CD64 ECD-his at 1 μg/mL.

In general, EC50 refers to the concentration that produces a half-maximal response. High values mean lower potency in that assay, low ones higher potency in that assay. hIgG1对照组(SIGMA，货号I4506) (antibody) showed an EC50 of 1.32 nM.
